Assay [1] has as its target PaxA_(981-1084), T1-CDD di-domain construct (apo), X. cabanillasii JM26 (Xenorhabdus cabanillasii JM26) (UniProt W1J0W9). As to the kind of experiment: ITC; PaxA construct titrated with the PaxB NDD peptide or its variant; n=3 for the variants. For orientation: In ITC the heat of successive injections is recorded.
Assay [2] concerns the target PaxA_(986-1089), T1-CDD di-domain construct (apo), X. bovienii SS-2004 (Xenorhabdus bovienii SS-2004). Described as above.
Assay [3] concerns the target T1, PaxB_(1-30) (PaxB NDD), X. cabanillasii JM26 (Xenorhabdus cabanillasii JM26).
T1 chain: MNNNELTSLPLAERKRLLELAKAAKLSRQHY
As to the kind of experiment: ITC; replicate 1.

Assay [4] addresses T1, PaxB_(1-30) (PaxB NDD), X. cabanillasii …. The experiment in a line: ITC; replicate 3.
Assay [5] has the same target. The experiment in a line: ITC; apo, replicate 1.
For assay [6] the target is unchanged. As to the kind of experiment: ITC; apo, replicate 3.
Assay [7] has the same target. The experiment in a line: ITC; holo (Ppant), replicate 1.
For assay [8] the target is unchanged. As to the kind of experiment: ITC; holo (Ppant), replicate 2.
Assay [9] shares this target. The experiment in a line: ITC; holo (Ppant), replicate 3.
For assay [10] the target is unchanged. The experiment in a line: ITC; holo (Ppant), mean of three replicates.
For another assay, the system named is PaxB NDD. The experiment in a line: ITC titration of X. cabanillasii PaxA constructs with PaxB NDD. The class given is binding, Xenorhabdus cabanillasii JM26. Particulars: X. cabanillasii JM26, 20 °C, pH 6.5, one site model. The source says: Unfortunately, despite its very high affinity the complex between the PaxA T1‐^CDD di‐domain construct and the PaxB ^NDD peptide from the PaxS NRPS from X. bovienii SS‐2004 was not suitable for a full structure determination. The closely related species Xenorhabdus cabanillasii JM26 also contains the PaxS NRPS with PaxA and PaxB (Figure S4). […] The affinity of this interaction was not modulated by the presence of the Ppant moiety in the PaxA T1 domain (Figure S7). […] Thus, the interaction between PaxA and PaxB from the PaxS NRPS of X. cabanillasii has biophysical properties very similar to the one from the X. bovienii system and was amenable to a full structural characterization by NMR spectroscopy.
England BioLabs) approach following the manufacturer`s instructions.
Protein expression and purification […]
interactions, proteins from Xenorhabdus cabanillasii and Xenorhabdus bovienii were […]
BAP1 under the control of a T7 promoter. All proteins of interest were expressed as SUMO […]
concentration measurements upon cleavage with Ulp protease. All constructs containing the […]
measurements, proteins were expressed in LB medium. Protein expression was induced at an […]
After expression, cells were lysed by […]
spectrometers equipped with cryogenic 5 mm triple resonance probes. The proton chemical […]
mercaptoethanol and 5 % D2O. Sequential assignments of backbone amide signals and […]

The term Kd denotes the free concentration of one partner at which half of the binding sites on the other are occupied at equilibrium, for simple one-to-one binding. Higher therefore signals lower affinity. In assay [1], “PaxB NDD K22E mutant, X. cabanillasii JM26 (domain or fragment)” gave a Kd of 3800 nM.
Same read-out and setting: the result for “PaxB NDD P10L variant, X. cabanillasii JM26 (domain or fragment)” reads 3900 nM; that for “PaxB NDD R16E mutant, X. cabanillasii JM26 (domain or fragment)”, 2800 nM.
A word on the stoichiometry N: it is the number of molecules, sites or subunits per partner or assembly. Take “PaxB_(1-30) (PaxB NDD), X. cabanillasii JM26 (domain or fragment)”: in [1], the Kd worked out at 248 nM and the stoichiometry N was determined as 0.88.
In assay [2], “PaxB_(1-36) (PaxB NDD), X. bovienii SS-2004 (domain or fragment)” came in with a Kd of 201 nM and a stoichiometry N of 0.74.

B1: PaxA_(981-1084), T1-CDD di-domain construct (apo), X. cabanillasii JM26 (domain or fragment)
chain: DHSSVITQEYAAPQGEIEEQLADIWQTILKIDRIGRYDNFFELGGHSLLVLQLQSRINEIFDVDISIQQLFAHPSICQLEECIINAQLLQFDADSLQDIYKSME
Take B1: the Kd came to 267 nM in [3], 224 nM in [4], 267 nM in assay [5] and 224 nM in assay [6].

B2: PaxA T1-CDD di-domain with the Ppant moiety (holo), X. cabanillasii JM26 (domain or fragment)
chain: B1 chain
modifications: phosphopantetheinyl (Ppant) arm attached to residue S1027
B2: the Kd in [7] turned out to be 248 nM; in [8] it was 220 nM; in assay [9] it was 192 nM; in [10] it was 220 nM.

B3: PaxA981–1084: X. cabanillasii PaxA T1-CDD di-domain (protein)
chain: B1 chain
Regarding B3, the “n (binding stoichiometry)” value with PaxB NDD was found to be 0.88±0.01 sites.

The values above are taken from publication PMC8251938, “Cooperation between a T Domain and a Minimal C‐Terminal Docking Domain to Enable Specific Assembly in a Multiprotein NRPS” (Angewandte Chemie (International Ed. in English), 2021).
